These results are taken from patent publication US20250082769A1, “CELLULAR UPTAKE PEPTIDE-THERAPEUTIC PAYLOAD COMPOSITIONS AND METHODS OF USE” (Nighthawk Biosciences, Inc., priority 2022, published 2025).

Experiment [1] relates to CHLA06 cells. Put plainly: Dose response / cell viability in CHLA06 cells. Format: cell-based. The procedure:
(§1) Biological activity of the peptides was determined using various assays. To determine proliferative activity, cells were plated at 5×10^3 cells per well in a 96-well microtiter plate. Samples and controls were added and the plates incubated for 24, 48 and 72 hours at 37° C. Viability was determined by adding WST-1 and reading at […] over 1-4 hours. Alternatively, viability was determined using a kit such as the EZViable calcein AM cell viability assay (BioVision) or the Live/Dead Cell imaging kit (ThermoFisher). Induction of cell events such as apoptosis was determined using reagents such as Cell Event Caspase 3/7 reagent (ThermoFisher).

The subject of another experiment is A431 cells. The experiment can be described thus: Dose response / cell viability in A431 cells. Type of experiment: cell-based, human. The procedure:
as §1
(§2) Cells were plated at 5000 cells/well in 100 ul D10 on day 0.100 ul of PDCs were added and titrated 1:1 in D10 (starting concentration=500 nM). WST-1 was added at 72 hours and the plates read over 5 hours at […] in a Promega GloMax.
A pocket biologic (peptide or antibody) having an internalization portion, a linker, and a localization signal was developed to deliver a drug or biological therapeutic into the cell. […] 429-MMAE-1 and 429-NLS-Panobinostat constructs were developed for in vivo studies. G292 cell lines and A431 cell lines were used in the in vivo studies. G292 cells were derived from a primary osteosarcoma of a person. […] A431 cells were established from an epidermoid carcinoma in the skin (epidermis) of a patient. Epidermal growth factor (EGF) stimulation of A431 cells induces rapid tyrosine phosphorylation of intracellular signaling proteins which control cellular processes such as growth, proliferation and apoptosis. […] 429-MMAE affected cell viability in G292 cell lines (FIG. 16A-FIG. 17). 429-MMAE at 50 nm, 125 nm, 250 nm, 500 nm concentrations and OV-MMAE conjugates at 50 nm, 125 nm, 250 nm, 500 nm concentrations were compared to DMSO and MMAE at 50 nm in G292 cells.

In another experiment the test system is microtubules. The experiment can be described thus: ViaFluor 647 live cell microtubule stain (FIG. 6). Format: cell-based. The conditions noted are these: ViaFluor 647 stain, 60 minutes at 37° C. The procedure: Cells were stained with ViaFluor 647 live cell microtubule stain (Biotium). Cells were treated as in FIG. 3 and stain with ViaFluor for 60 minutes at 37° C.

Experiment [2] deals with cancer cell lines of different lineages. The experiment can be described thus: Internalization of OV-8 in cell lines. The conditions noted are these: FIG. 2. Format: cell-based.
The test system of another experiment is ATRT cell lines. The experiment can be described thus: Apoptosis in ATRT cell lines, combination with tazemetostat. Type of experiment: cell-based.
In a further experiment the test system is Myc transcription. Put plainly: Myc transcription in HCT116 Myc-reporter cells. Type of experiment: cell-based, human. The conditions noted are these: for inhibition of Myc transcription: dose series.
Experiment [3] has as its system CHLA06 cells. Put plainly: Confocal microscopy of 429-SMARCB1 in CHLA06 cells. Format: cell-based. The conditions noted are these: confocal fluorescent microscopy.
The next experiment has as its system HCT116 cells. Put plainly: Dose response / cell viability in HCT116 cells. Format: cell-based, human. The conditions noted are these: HCT116 Myc-reporter cells. The procedure: as §1, §2
Experiment [4] deals with CHLA06 cells. Put plainly: Caspase assay (apoptosis) in CHLA06 cells. The conditions noted are these: SMARCB1 conjugate and tazemetostat treatments. Format: cell-based. The procedure: as §1
429-MMAE was also compared with 429-SM in various cell lines. 429-SM represents 429-Smarc-MMAE and consists of 429-linker-NLS-SMARCB1 mimic to which 1 or 2 MMAE molecules are conjugated through the cysteines. CHLA06 cells were plated at 10,000 cells/well in B27-5 overnight. Samples were added and incubated for 48 hours at 37° C. Caspase 3/7 reagent was added and plates were read after 30 minutes at room temperature. […] Induction of apoptosis is directly correlated with drug concentration (i.e., higher the concentration of drug, the higher the apoptotic effect). […] 429-SM was also effective in A431 and HCT116 cells (FIG. 42C-42D).

The test system of the next experiment is CHLA02 cells. Put plainly: Caspase activity / apoptosis in CHLA02 cells. The conditions noted are these: CHL02 cells; SMARCB1 Mimic (F) and tazemetostat treatments. Format: cell-based. The procedure: as §1

Where two headings read alike, the source gives them in different places. Non-standard residues stand in square brackets, D forms with d. Residues, ends and D or L forms follow the SMILES beside them. *: point of attachment. Dolaproine = CO[C@@H]([C@@H]1CCCN1)[C@@H](C)C(=O)O; Dil = CC[C@H](C)[C@H](NC)[C@@H](CC(=O)O)OC; X1 = C[C@@H](N*)[C@@H](O)c1ccccc1; NMeV = CN[C@H](C(=O)O)C(C)C

Turning to `C[C@]1(O)C[C@@H](c2nc(-c3ccc4ccc(-c5ccccc5)nc4c3)c3c(N)nccn32)C1` [Linsitinib], the “effect on CHLA06 cells (dose response)” value in the experiment with CHLA06 cells [1] (FIG. 38A) is listed as “no effects”.
Take `CC[C@H](C)[C@@H]([C@@H](CC(=O)N1CCC[C@H]1[C@H](OC)[C@@H](C)C(=O)N[C@H](C)[C@@H](O)c1ccccc1)OC)N(C)C(=O)[C@@H](NC(=O)[C@@H](NC)C(C)C)C(C)C` [MMAE, monomethyl auristatin E, reference compound] (H-[NMeV]V[Dil][Dolaproine]-X1): in the experiment with A431 cells (A431 cells, MMAE at 1:3 dilutions, FIG. 20A, read-out: IC50 value (four-parameter non-linear regression)), the IC50 was 0.0712 nM. The disruption of microtubules entry in the experiment on microtubules is “disrupt microtubules”.
On to `Nc1ncnc2c1c(-c1cccc(OCc3ccccc3)c1)cn2C1CC(CN2CCCC2)C1` (centres unmarked) [NVP-ADW742], for which the “effect on CHLA06 cells (dose response)” value in the experiment on CHLA06 cells [1] (FIG. 38A) was “no effects”.
Turning to `COc1cc([C@@H]2c3cc4c(cc3[C@H](O)[C@H]3COC(=O)[C@@H]23)OCO4)cc(OC)c1OC` [PPP, Picropodophyllin], in the experiment on CHLA06 cells [1] (FIG. 38A), the “effect on CHLA06 cells (dose response)” value is on record as “active” and the “effectiveness compared to 429-MMAE in terms of IC50” value was “less effective”.
Regarding `Cc1[nH]c2ccccc2c1CCNCc1ccc(/C=C/C(=O)NO)cc1` [Panobinostat, reference compound], the IC50 in the experiment with A431 cells (Homo sapiens, A-431, A431 cells, FIG. 20B, FIG. 24A, read-out: IC50 value) is 108 nM; in the experiment on A431 cells (Homo sapiens, A-431, printed as A431 treated with Panobinostat, in the sentence on CHLA06 cells, FIG. 24B, read-out: IC50) it was above 500 nM.
Regarding FSFGNSSLRKLPGVVRRRRCARGVWR [Skwx-OV-8], in experiment [2], the “internalization into cancer cell lines” value is on record as “internalize”.

B1: 429-SMARCB1: 429 construct delivering SmarcB1-myc binding sequence to nucleus (peptide)
chain: DFYGCLLDLSLGVPSLGWRRRCITAWLPSSIPKKKRKVDGQKLRDAFTWNMNEKLMTPEMFSEILCDDLD
modifications: 429 conjugate
For B1, in the experiment with ATRT cell lines, the “apoptotic effect in combination with tazemetostat” value was “synergistic apoptotic effect”. The “Myc transcription compared to the control” value in the experiment with Myc transcription (5 nM) and in the experiment with Myc transcription (50 nM) was “significantly affects Myc transcription” in each case. In addition, the “inhibition of Myc transcription” value in the experiment with Myc transcription was “inhibits Myc transcription”. For the same molecule, in the experiment on CHLA06 cells [3] (CHLA06 cells), the internalization entry is listed as “internalized”. Moreover, the co-localization with histones result in the experiment on CHLA06 cells [3] is given as “co-localizes with histones”. In the experiment with HCT116 cells, the “HCT116 cell viability compared to a control” value is reported as “affects HCT116 cell viability”. For the same molecule, the caspase activity entry with CHLA06 cells [4] is reported as “increased caspase activity”. For the same molecule, the cell viability entry in the experiment with CHLA06 cells [1] (429-SMARCB1 and tazemetostat treatments) was “reduced cell viability”.

B2: DFYGCLLDLSLGVPSLGWRRRCITAWLPSSIPKKKRKVDGQKLRDAFTWNMNEKLMTPEMFSEILCDDLD (peptide)
chain: B1 chain
modifications: not fully specified
With B2, in the experiment on Myc transcription, the “inhibition of Myc transcription” value is reported as “inhibited”. The “HCT116 cell viability compared to a control” value with HCT116 cells was “inhibited”. The caspase activity result in the experiment on CHLA06 cells [4] and in the experiment with CHLA02 cells was “significantly increased caspase activity” each time. Further, the “CHLA06 cell viability compared to 429 control” value with CHLA06 cells [1] (50 ug) is given as “significantly affected CHLA06 cell viability”.
